Data: publication PMC9894195

Key:
[1] = target: full-length human Lck-mEGFP (HEK293T) (UniProt P06239); assay: sFCCS (line-scan fluorescence cross-correlation spectroscopy) in live cells; settings: HEK293T cells coexpressing mCherry2-tagged CD4 construct with wild-type Lck-mEGFP; read off a plot
[2] = target: full-length human CD4 with both the basic-rich region and the amphipathic α-helix replaced by (Gly-Ser)n linkers, mCherry2-tagged (human) (UniProt P01730); assay: scanning fluorescence cross-correlation spectroscopy (sFCCS); live HEK293T cells on glass coverslips coexpressing mCherry2- and mEGFP-tagged proteins, one coreceptor; line scans at the basal cell surface; cross-correlation quotient q normalised to the tandem control (100%) and Lck^CS/Lck^CS (0%)
[3] = target: full-length human CD4 with the unstructured C-terminal tail replaced by a (Gly-Ser)n linker, mCherry2-tagged (human) (UniProt P01730); assay: as above
[4] = target: full-length human CD4 with the amphipathic α-helix replaced by a (Gly-Ser)n linker, mCherry2-tagged (human) (UniProt P01730); assay: as above

Substance | other: normalized cross-correlation quotient q (occupancy) [1] | decrease in CD4/Lck occupancy [2] | decrease in CD4/Lck occupancy [3] | decrease in CD4/Lck occupancy [4]
full-length human CD4-mCherry2 (HEK293T) (from UniProt P01730) CQC>SQS (both Zn2+ clasp Cys to Ser; no residue numbers printed) | 1% | – | – | –
full-length human Lck-mEGFP (HEK293T) (from UniProt P06239 1-509) (enzyme) | – | 28% | 14% | 27%
